Consider eight molecules from paper doi:10.64898/2025.12.19.695307 (bioRxiv, 2025).

B1: R1-32 (antibody, V domains shown)
VH: EVQLVESGAEVKKPGSSVKVSCKASGGTFSSYAISWVRQAPGQGLEWMGGIIPILGIANYAQKFQGRVTITADKSTSTAYMELSSLRSEDTAVYYCARENGYSGYGAAANFDLWGRGTLVTVSS
VL: QSVLTQPPSVSGAPGQRVTISCTGSSSNIGAGYDVHWYQQLPGTAPKLLIYGNSNRPSGVPDRFSGSKSGTSASLAITGLQAEDEADYYCQSYDSSLSGSVFGGGTKLTVL
B2: C807 (antibody, V domains shown)
VH: QVQLVQSGAEAKKPGSSVKVSCKASGGTFKSYIINWVRQAPGQGLEWMGEIIPIFGTANYAQKFQGRVTSTADESTSTAYMELSSLKSEDTAVYYCARGRGYSGYGASYYFDYWGQGTLVTVSS
VL: B1 VL with S26N, G52A, S96G
B3: BD56-104 (antibody, V domains shown)
VH: QVQLVQSGAEVKTPGSSVKVSCKASGGTFGSHSITWVRQAPGQGLEWMGRVIPILGIPDFAESFQGRVAITADRSTSTAHMELSRLRSEDTAVYYCARDVGYSGSGSSNYFDSWGQGTLVTVSS
VL: B1 VL with S26N, Q39R, G52V, S54N, K68R, T71A, D87E, V101I
B4: BD56-597 (antibody, V domains shown)
VH: QVQLVQSGAEVKKPGSSVKVSCKASGGTFSTYPISWVRQAPGQGVEWMGAIIPILGTTDYAQIFQGRVTITADKSTSTAYMELSSLRPEDTAVYYCARERGYSGYGAAYYFDSWGQGTLVTVSS
VL: B1 VL with S26D, G52V, S54I, G70A, S100V
B5: C092 (antibody, V domains shown)
VH: QVQLVQSGAEVKKPGSSVKVSCKASGGSFTNHFISWVRQAPGQGLEWMGRIIPILGTANYAQNFQGRVMMTADKSTSTAYMELSSLRSEDTAVYYCARDSGYSGYGSTYYMDVWGKGTTVTVSS
VL: B1 VL with S26N, T44A, S54N, G70D, A82V, G99D, G104S, L108V
B6: C092-germline HCDR1 (antibody, V domains shown)
VH: B5 VH with S28T, T30S, N31S, H32Y, F33A
VL: B1 VL with S26N, T44A, S54N, G70D, A82V, G99D, G104S, L108V
B7: R1-32-AAM (R1-32-artificial-affinity-matured) (antibody, V domains shown)
VH: B1 VH with A33F, N59D, Q62E, A109Y
VL: B1 VL with S26D, G70D, G99D
B8: BD56-104+D59NH+E62QH (antibody, V domains shown)
VH: B3 VH with D59N, E62Q
VL: B1 VL with S26N, Q39R, G52V, S54N, K68R, T71A, D87E, V101I

Positions count from the first letter of the chain named. Where only a bound is given, the exact number is not on record here.

For one assay, the target named is SARS-CoV-2 Omicron BA.2.13 RBD (SARS-CoV-2 Omicron BA.2.13, L452M). Put plainly: BLI.
In general, Kd refers to a measure of binding affinity in units of concentration. For B1, the Kd is above 55 nM.
Same read-out and setting: with B2 the figure was below 2.1 nM.
On the same count and under the same terms, with B3 the figure was below 2.1 nM; with B4, below 2.1 nM; with B5, below 2.1 nM.

A further assay deals with SARS-CoV-2 Delta (B.1.617.2) RBD (SARS-CoV-2 Delta (B.1.617.2), L452R). As to the kind of experiment: BLI. For orientation: BLI is a label-free optical method that tracks binding on a fibre tip over time.
B1 displayed an equilibrium dissociation constant (Kd) above 55 nM.
Consider B6, for which the “fold reduction in binding relative to C092” value is around 10 fold.
In turn, B2 returned a Kd below 2.1 nM.
Still for that read-out and setting: with B3 the figure was below 2.1 nM.
B4 returned an equilibrium dissociation constant (Kd) below 2.1 nM.
Still for that read-out and setting: with B5 the figure was below 2.1 nM.
Take B7: the “fold enhancement of affinity relative to R1-32” value is around 100 fold.

In the next assay the target is SARS-CoV-2 Alpha (B.1.1.7) RBD (SARS-CoV-2 Alpha (B.1.1.7), strain). Put plainly: BLI.
B2 registered a Kd below 0.3 nM.
Same read-out and setting: with B3 the figure was below 0.3 nM; with B4, below 0.3 nM.
On the same count and under the same terms, then B5, with below 0.3 nM.

A further assay addresses SARS-CoV-2 WT S-trimer (SARS-CoV-2 ancestral (WT), UniProt P0DTC2, deletion of amino acids PRRA (681-684)). Put plainly: BLI.
Consider B2, for which the binding result was “binds”.
Regarding B3, the binding result is “binds”.
As to B4, the binding result is reported as “binds”.
On the same count and under the same terms, with B5 the entry was “binds”.

In another assay the target is SARS-CoV-2 Omicron BA.1.1 RBD (SARS-CoV-2 Omicron BA.1.1, strain). As to the kind of experiment: BLI.
B2 showed an equilibrium dissociation constant (Kd) below 0.3 nM.
As to B3, the Kd was below 0.3 nM.
On the same count and under the same terms, then B4, with below 0.3 nM; and B5, with below 0.3 nM.

The target in another assay is SARS-CoV-2 Omicron XBB RBD (SARS-CoV-2 Omicron XBB, F490S). As to the kind of experiment: BLI.
The molecule B2 displayed an equilibrium dissociation constant (Kd) below 4.5 nM.
Still for that read-out and setting: with B3 the figure was below 4.5 nM; with B4, below 4.5 nM.
On the same count and under the same terms, then B5, with below 4.5 nM.

The target in another assay is SARS-CoV-2 Omicron BA.3 RBD (SARS-CoV-2 Omicron BA.3, strain). As to the kind of experiment: BLI.
B2 showed a dissociation constant Kd below 0.3 nM.
The same measure, in the same setting: with B3 the figure was below 0.3 nM; with B4, below 0.3 nM; with B5, below 0.3 nM.

In the next assay the target is SARS-CoV-2 Omicron BA.2.75 RBD (SARS-CoV-2 Omicron BA.2.75, strain). As to the kind of experiment: BLI.
Molecule B2 came in with an equilibrium dissociation constant (Kd) below 0.3 nM.
B3 gave a dissociation constant Kd below 0.3 nM.
On the same count and under the same terms, with B4 the figure was below 0.3 nM; with B5, below 0.3 nM.

For a further assay, the target named is SARS-CoV-2 Omicron BA.1 RBD (SARS-CoV-2 Omicron BA.1, strain). As to the kind of experiment: BLI.
Molecule B2 registered a dissociation constant (Kd) below 0.3 nM.
The same measure, in the same setting: then B3, with below 0.3 nM; and B4, with below 0.3 nM; and B5, with below 0.3 nM.

The target in a further assay is SARS-CoV-2 Omicron EG.5 RBD (SARS-CoV-2 Omicron EG.5, R346T | F490S). Put plainly: BLI.
Consider B2, for which the Kd was below 4.5 nM.
On the same count and under the same terms, then B3, with below 4.5 nM; and B4, with below 4.5 nM; and B5, with below 4.5 nM.

The target in another assay is SARS-CoV-2 Omicron XBB.1.5 RBD (SARS-CoV-2 Omicron XBB.1.5, F490S). As to the kind of experiment: BLI.
For B2, the dissociation constant (Kd) is below 4.5 nM.
Regarding B3, the equilibrium dissociation constant (Kd) is below 4.5 nM.
B4: the Kd is below 4.5 nM.
Still for that read-out and setting: then B5, with below 4.5 nM.

The target of a further assay is SARS-CoV-2 Omicron BA.2 RBD (SARS-CoV-2 Omicron BA.2, strain). As to the kind of experiment: BLI.
Regarding B2, the equilibrium dissociation constant (Kd) was below 0.3 nM.
Same read-out and setting: with B3 the figure was below 0.3 nM; with B4, below 0.3 nM.
The same measure, in the same setting: then B5, with below 0.3 nM.

For the next assay, the target named is SARS-CoV-2 Omicron BF.7 RBD (SARS-CoV-2 Omicron BF.7, L452R). Put plainly: BLI.
For the molecule B1, the equilibrium dissociation constant (Kd) was above 55 nM.
B2 showed a Kd below 2.1 nM.
On the same count and under the same terms, with B3 the figure was below 2.1 nM; with B4, below 2.1 nM; with B5, below 2.1 nM.
Turning to B7, the “fold enhancement of affinity relative to R1-32” value was around 100 fold.

The target of a further assay is SARS-CoV-2 Omicron BQ.1.1 RBD (SARS-CoV-2 Omicron BQ.1.1, R346T | L452R). Put plainly: BLI.
Molecule B1 registered a dissociation constant (Kd) above 55 nM.
B2 yielded a Kd below 2.1 nM.
On the same count and under the same terms, with B3 the figure was below 2.1 nM; with B4, below 2.1 nM.
On the same count and under the same terms, then B5, with below 2.1 nM.
Turning to B7, the “fold enhancement of affinity relative to R1-32” value is around 100 fold.

For another assay, the target named is SARS-CoV-2 Beta (B.1.351) RBD (SARS-CoV-2 Beta (B.1.351), strain). Put plainly: BLI.
Molecule B2 displayed a Kd below 0.3 nM.
Same read-out and setting: then B3, with below 0.3 nM; and B4, with below 0.3 nM.
With B5, the Kd was below 0.3 nM.

The next assay concerns the target SARS-CoV-2 Omicron BA.4/5 RBD (SARS-CoV-2 Omicron BA.4/5, L452R). As to the kind of experiment: BLI.
In turn, B1 had an equilibrium dissociation constant (Kd) above 55 nM.
For B6, the “fold reduction in binding relative to C092” value was around 10 fold.
For B2, the dissociation constant Kd was below 2.1 nM.
With B3, the dissociation constant (Kd) was below 2.1 nM.
As for B8, the “fold reduction in binding relative to BD56-104” value was around 100 fold.
Consider B4, for which the Kd was below 2.1 nM.
Same read-out and setting: then B5, with below 2.1 nM.
On to B7, for which the “fold enhancement of affinity relative to R1-32” value was around 100 fold.

The target in another assay is SARS-CoV-2 Omicron EG.5.1 RBD (SARS-CoV-2 Omicron EG.5.1, F490S). As to the kind of experiment: BLI.
B2 registered an equilibrium dissociation constant (Kd) below 4.5 nM.
For the molecule B3, the Kd is below 4.5 nM.
Regarding B4, the equilibrium dissociation constant (Kd) is below 4.5 nM.
For B5, the dissociation constant (Kd) was below 4.5 nM.

Another assay addresses SARS-CoV-2 Kappa (B.1.617.1) RBD (SARS-CoV-2 Kappa (B.1.617.1), L452R). Put plainly: BLI.
B1 yielded a Kd above 55 nM.
With B6, the “fold reduction in binding relative to C092” value is around 10 fold.
Take B2: the dissociation constant (Kd) is below 2.1 nM.
On the same count and under the same terms, then B3, with below 2.1 nM.
Still for that read-out and setting: with B4 the figure was below 2.1 nM; with B5, below 2.1 nM.
For B7, the “fold enhancement of affinity relative to R1-32” value is around 100 fold.

Another assay has as its target SARS-CoV-2 Gamma (P.1) RBD (SARS-CoV-2 Gamma (P.1), strain). Put plainly: BLI.
On to B2, for which the dissociation constant Kd is below 0.3 nM.
Still for that read-out and setting: then B3, with below 0.3 nM; and B4, with below 0.3 nM.
The same measure, in the same setting: then B5, with below 0.3 nM.

The target in the next assay is SARS-CoV-2 Omicron BA.2.12.1 RBD (SARS-CoV-2 Omicron BA.2.12.1, L452Q). Put plainly: BLI.
B1 yielded a dissociation constant Kd above 55 nM.
Same read-out and setting: with B2 the figure was below 2.1 nM; with B3, below 2.1 nM.
Regarding B4, the Kd was below 2.1 nM.
For B5, the Kd was below 2.1 nM.
